According to US20220259289A1 (Janssen / Centocor, published 2022):

B1: ISOP193GR9P1A7 (designed binder, not shown: small tags and cut ends)
chain: LPAPKNLVVSRVTEDSARLSWTAPDAAFDSFAIFYHEFANPGEAIDLPVPGSERSYDLTGLKPGTEYDVRIYGVKGGTASIPLDAEFTT
B2: ISOP193ER9P1A11 (designed binder, not shown: small tags and cut ends)
chain: LPAPKNLVVSRVTEDSARLSWTAPDAAFDSFAIQYQEYVAHGEAIVLTVPGSERSYDLTGLKPGTEYHVRISGVKGGGVSWPLSAIFTT
B3: ISOP193ER9P1B5 (designed binder, not shown: small tags and cut ends)
chain: LPAPKNLVVSRVTEDSARLSWTAPDAAFDSFAIQYQEYVAHGEAIVLTVPGSERSYDLTGLKPGTEYHVRISGVKGGGVSWPLSAIVTT
B4: ISOP193ER9P1E4 (designed binder, not shown: small tags and cut ends)
chain: LPAPKNLVVSRVTEDSARLSWTAPDAAFDSFAIIYQEYVKSGEAIVLTVPGSERSYDLTGLKPGTEYHVRIGGVKGGLLSLPLSAIFTT
B5: ISOP193ER9P1A8 (designed binder, not shown: small tags and cut ends)
chain: LPAPKNLVVSRVTEDSARLSWTAPDAAFDSLDIYYFEHPVGGEAIVLTVPGSERSYDLTGLKPGTEYLVTIYGVKGGYLSMPLSAIFTT
B6: ISOP193FR9P1A5 (designed binder, not shown: small tags and cut ends)
chain: LPAPKNLVVSRVTEDSARLSWTAPDAAFDSFEIYYIEPIAPGEAIVLTVPGSERSYDLTGLKPGTEYWVTIYGVKGCDWSDPLSAIFTT
B7: ISOP193ER9P1C8 (designed binder, not shown: small tags and cut ends)
chain: LPAPKNLVVSRVTEDSARLSWTAPDAAFDSFDIYYFEHPVGGEAIVLTVPGSERSYDLTGLKPGTEYLVTIYGVKGGTYSLPLSAIFTT
B8: ISOP193FR9P1H9 (designed binder, not shown: small tags and cut ends)
chain: LPAPKNLVVSRVTEDSARLSWTAPDAAFDSFEIYYDELRNPGEAIVLTVPGSERSYDLTGLKPGTEYAVTIYGVKGGRYSPPLSAIFTT
B9: ISOP193HR9P1C8 (designed binder, not shown: small tags and cut ends)
chain: LPAPKNLVVSRVTEDSARLSWTAPDAAFDSFEIYYFELRLGGEAIVLTVPGSERSYDLTGLKPGTEYLVTIYGVKGGGYSTPLSAIFTT
B10: ISOP193FR9P1C5 (designed binder, not shown: small tags and cut ends)
chain: LPAPKNLVVSRVTEDSARLSWTAPDAAFDSFHIYYLEQYSRGEAIVLTVPGSERSYDLTGLKPGTEYLVTIYGVKGCDWSDPLSAIFTT
B11: ISOP193FR9P1C9 (designed binder, not shown: small tags and cut ends)
chain: LPAPKNLVVSRVTEDSARLSWTAPDAAFDSFQIYYFEWVVGGEAIVLTVPGSERSYDLTGLKPGTEYLVTIYGVKGCDWSDPLSAIFTT
B12: ISOP193ER9P1F7 (designed binder, not shown: small tags and cut ends)
chain: LPAPKNLVVSRVTEDSAHLSWTAPDAAFDSFDIYYFEHPVGGEAIVLTVPGSERSYDLTGLKPGTEYLVTIYGVKGGYLSMPLSAIFTT
B13: ISOP193FR9P1G4 (designed binder, not shown: small tags and cut ends)
chain: LPAPKNLVVSRVTEDSARLSWTAPDAAFDSFEIYYFENELGGEAIVLTVPGSERSYDLTGLKPGTEYLVTIYGVKGGDWSDPLSAIFTT
B14: ISOP193ER9P1E8 (designed binder, not shown: small tags and cut ends)
chain: LPAPKNLVVSRVTEDSARLSWTAPDAAFDSFDIYYFEHPVGGEAIVLTVPGSERSYDLTGLKPGTEYLVTIYGVKGGELSKPLSAIFTT
B15: ISOP193FR9P1C1 (designed binder, not shown: small tags and cut ends)
chain: LPAPKNLVVSRVTEDSARLSWTAPDAAFDSFEIYYFENENGGEAIVLTVPGSERSYDLTGLKPGTEYLVTIYGVKGCDWSDPLSAIFTT
B16: ISOP193ER9P1H11 (designed binder, not shown: small tags and cut ends)
chain: LPAPKNLVVSRVTEDSARLSWTAPDAAFDSFDIYYFEHPVGGEAIVLTVPGSERSYDLTGLKPGTEYLVAIYGVKGGVFSHPLSAIFTT
B17: ISOP193AR9P1B10 (designed binder, not shown: small tags and cut ends)
chain: LPAPKNLVVSRVTEDSARLSWAFQWHIFDSFLIQYQESEKVGEAIVLTVPGSERSYDLTGLKPGTEYTVSIYGVGRHYTVYDSNPLSAIFTT
B18: ISOP193ER9P1H2 (designed binder, not shown: small tags and cut ends)
chain: LPAPKNLVVSRVTEDSARLSWTAPDAAFDSFRISYLEDVYYGEAIVLTVPGSERSYDLTGLKPGTEYHVGIHGVKGGIDSFPLSAIFTT
B19: ISOP193AR9P1B4 (designed binder, not shown: small tags and cut ends)
chain: LPAPKNLVVSRVTEDSARLSWRDLQYHTFDSFLIQYQESEKVGEAIVLTVPGSERSYDLTGLKPGTEYTVSIYGVGRHYTVYDSNPLSAIFTT
B20: ISOP193AR9P1G11 (designed binder, not shown: small tags and cut ends)
chain: LPAPKNLVVSRVTEDSARLSWTNEQITKYGFDSFLIQYQESEKVGEAIVLTVPGSERSYDLTGLKPGTEYTVSIYGVGRHYTVYDSNPLSAIFTT
B21: ISOP193AR9P1F9 (designed binder, not shown: small tags and cut ends)
chain: LPAPKNLVVSRVTEDSARLSWPLFASDLNIFDSFLIQYQESEKVGEAIVLTVPGSERSYDLTGLKPGTEYTVSIYGVGRHYTVYDSNPLSAIFTT
B22: ISOP193BR9P1B10 (designed binder, not shown: small tags and cut ends)
chain: LPAPKNLVVSRVTEDSARLSWAWNRHDFDSFLIQYQESEKVGEAIVLTVPGSERSYDLTGLKPGTEYTVSIYGVHWTVLRPFIDSNPLSAIFTT

What was measured:
[1] = target: unrelated Fc-fused recombinant protein; assay: ELISA, negative control Fc protein
human serum albumin = target: T1, human serum albumin (human, UniProt P02768 25-609); assay: ELISA, negative control HSA
T1 construct: Negative control of the ELISA; also called HSA
Experimental: (§1) Streptavidin-coated Maxisorp plates (Nunc catalog 436110) were blocked for 1 h in Starting Block T20 (Pierce) and then coated with biotinylated CD137 (using same antigen as in panning) or negative controls (an unrelated Fc-fused recombinant protein and human serum albumin) for 1 h. Plates were rinsed with TBST and diluted lysate was applied to plates for 1 h. Following additional rinses, wells were treated with HRP-conjugated anti-Centyrin antibody (PAB25) for 1 h and then assayed with POD (Roche catalog 11582950001).

[2] = target: T2, recombinant biotinylated CD137 protein (Fc-fusion protein, R&D Systems 838-4B) (human, UniProt Q07011 24-186, biotinylated, sites not stated); assay: ELISA, lysate on biotinylated CD137-Fc
T2 construct: Bought Fc fusion; also called CD137-Fc
Experimental: as §1

[3] = target: extracellular domain of human CD137 on the surface of CHO-K1 cells (human, UniProt Q07011 24-186); assay: flow cytometry on CHO-K1 cells with human CD137 ECD
Experimental: Cell surface binding was analyzed via flow cytometry. Cenyrins were prepared at a maximal concentration of 500 nM in the presence of 125 nM anti His-mIgG1 antibody and then serially diluted in PBS/1% FCS buffer. Samples were then applied to approx 100 000 CHO-Kl cells expressing the extracellular domain of human CD137 on their surface. Unbound Centyrin/Antibody complexes were washed away and bound FN3 domains were detected by the addition of goat anti mouse-FITC labeled antibody. Samples were then aquired by flow cytometry. Subsequently, Mean flurescence intensity was plotted against the log Centyrin concentration and EC50 values were calculated by nonlinear regression using GraphPad Prism.

[4] = target: human serum albumin (human) (UniProt P02768); assay: ELISA, negative control HSA
Chain of human serum albumin (human) (P02768 25-609 limits assumed): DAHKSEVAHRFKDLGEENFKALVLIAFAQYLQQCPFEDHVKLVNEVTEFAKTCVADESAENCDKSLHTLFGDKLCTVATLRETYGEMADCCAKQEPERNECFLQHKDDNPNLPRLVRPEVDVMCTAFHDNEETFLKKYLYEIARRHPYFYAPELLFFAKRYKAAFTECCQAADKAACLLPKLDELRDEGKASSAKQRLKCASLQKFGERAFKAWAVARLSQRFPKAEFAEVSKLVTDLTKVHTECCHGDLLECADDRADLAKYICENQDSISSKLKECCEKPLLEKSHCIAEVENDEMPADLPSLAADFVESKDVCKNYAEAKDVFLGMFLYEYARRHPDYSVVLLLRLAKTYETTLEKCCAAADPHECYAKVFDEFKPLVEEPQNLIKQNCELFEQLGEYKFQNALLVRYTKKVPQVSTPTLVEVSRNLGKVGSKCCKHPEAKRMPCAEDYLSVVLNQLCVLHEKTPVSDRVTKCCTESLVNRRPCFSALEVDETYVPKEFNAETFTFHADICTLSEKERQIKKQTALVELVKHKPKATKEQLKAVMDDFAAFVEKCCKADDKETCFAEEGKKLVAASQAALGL

T1 sequence (P02768 25-609 limits assumed): as above

Binder	ELISA Fc Control (RLU) [1] [RLU]	ELISA HSA (RLU) (human serum albumin)	ELISA CD137 (RLU) [2] [RLU]	EC50 [3] [nM]	ELISA HSA (RLU) [4] [RLU]
B1	1040	480	2.15e+06	606	–
B2	1200	640	1.28e+07	10.6	–
B3	1200	400	1.27e+07	7.34	–
B4	1680	480	1.26e+07	279	–
B5	1440	400	1.43e+07	17	–
B6	95100	–	9.07e+06	–	26200
B7	1040	400	1.67e+07	12.4	–
B8	2000	800	2.42e+06	72.8	–
B9	1360	560	1.82e+07	3.27	–
B10	79300	–	8.66e+06	–	19200
B11	21000	–	1.23e+07	–	4000
B12	1200	480	1.51e+07	25	–
B13	1840	640	1.4e+07	26.9	–
B14	880	480	1.64e+07	17.7	–
B15	36800	–	1.41e+07	–	8160
B16	1360	640	2.08e+06	184	–
B17	1520	480	8.12e+06	1.21	–
B18	1360	560	5.18e+06	27.5	–
B19	960	480	5.74e+06	13.9	–
B20	2240	960	5.89e+06	10.5	–
B21	1600	560	4.71e+06	218	–
B22	2640	1200	9.73e+06	134	–
